Laboratory results taken from article PMC10786891, “Massively parallel profiling of RNA-targeting CRISPR-Cas13d”.
Numbering of substitutions follows the chain as printed. In names and notes the source's numbering stands.

B1: target 1 insC 3' of 11,insU 3' of 2 (mixed)
RNA 1: CACCCGUGCAAAAAUGCAGGGGUCUAAAACUGAGCGGAUAACCUCUCUAUGG
RNA 2: GGGAAUGGAUCCACAUCUACGAAUUCGUACCAUAGAGAGGUCUAUCCGCUCUACCGAGAUCGGAAGAGCACACGU
B2: target 1 insG 3' of 6,insU 3' of 6 (mixed)
RNA 1: B1 RNA 1
RNA 2: GGGAAUGGAUCCACAUCUACGAAUUCGUACCAUAGAGAGGUUAUCCGUGCUCACCGAGAUCGGAAGAGCACACGU
B3: target 1 C7U,U10C (mixed)
RNA 1: B1 RNA 1
RNA 2: GGGAAUGGAUCCACAUCUACGAAUUCGUACCAUAGAGAGGUCAUUCGCUCACCGAGAUCGGAAGAGCACACGU
B4: target 1 insU 3' of 22,insA 3' of 15 (mixed)
RNA 1: B1 RNA 1
RNA 2: GGGAAUGGAUCCACAUCUACGAAUUCGUACUCAUAGAGAAGGUUAUCCGCUCACCGAGAUCGGAAGAGCACACGU
B5: target 1 U10A,A16G (mixed)
RNA 1: B1 RNA 1
RNA 2: B3 RNA 2 with A36G, C42A, U45C
B6: target 1 C6A,A20U (mixed)
RNA 1: B1 RNA 1
RNA 2: B3 RNA 2 with A32U, C42U, U45C, C46A
B7: target 1 C4A,U19G (mixed)
RNA 1: B1 RNA 1
RNA 2: B3 RNA 2 with U33G, C42U, U45C, C48A
B8: target 1 insC 3' of 19,insG 3' of 7 (mixed)
RNA 1: B1 RNA 1
RNA 2: GGGAAUGGAUCCACAUCUACGAAUUCGUACCAUCAGAGAGGUUAUCGCGCUCACCGAGAUCGGAAGAGCACACGU
B9: target 1 G5C,A16C (mixed)
RNA 1: B1 RNA 1
RNA 2: B3 RNA 2 with A36C, C42U, U45C, G47C
B10: target 1 U3C,C7G (mixed)
RNA 1: B1 RNA 1
RNA 2: B3 RNA 2 with C42U, U45G, U49C
B11: target 1 insU 3' of 18,insG 3' of 2 (mixed)
RNA 1: B1 RNA 1
RNA 2: B1 RNA 2 with G35U, A36G, G37A, A38G, G39A, U41G, C42U, U52G
B12: target 1 G13A,A20C (mixed)
RNA 1: B1 RNA 1
RNA 2: B3 RNA 2 with A32C, G39A, C42U, U45C
B13: target 1 A20U,C22U (mixed)
RNA 1: B1 RNA 1
RNA 2: B3 RNA 2 with C30U, A32U, C42U, U45C
B14: target 1 insA 3' of 19,insC 3' of 14 (mixed)
RNA 1: B1 RNA 1
RNA 2: B4 RNA 2 with U31C, C32A, A33U, U34A, A40C
B15: target 1 U3A,A18C (mixed)
RNA 1: B1 RNA 1
RNA 2: B3 RNA 2 with A34C, C42U, U45C, U49A
B16: target 1 U3C,C6A (mixed)
RNA 1: B1 RNA 1
RNA 2: B3 RNA 2 with C42U, U45C, C46A, U49C
B17: target 1 insG 3' of 2,insC 3' of 1 (mixed)
RNA 1: B1 RNA 1
RNA 2: B2 RNA 2 with U48C, G49U, U51G, C52A, A53C
B18: target 1 C6G,U19G (mixed)
RNA 1: B1 RNA 1
RNA 2: B3 RNA 2 with U33G, C42U, U45C, C46G
B19: target 1 complement block 7-13 (mixed)
RNA 1: B1 RNA 1
RNA 2: B3 RNA 2 with G39C, G40C, U41A, C42A, A43U, U44A, U45G
B20: target 1 insC 3' of 10,insG 3' of 7 (mixed)
RNA 1: B1 RNA 1
RNA 2: B2 RNA 2 with A43C, U44A, C45U, U48C
B21: target 1 insU 3' of 15,insC 3' of 8 (mixed)
RNA 1: B1 RNA 1
RNA 2: B8 RNA 2 with C34A, A35G, G36A, A37G, G38U, G47C
B22: target 1 insA 3' of 21,insG 3' of 8 (mixed)
RNA 1: B1 RNA 1
RNA 2: B8 RNA 2 with U33A, C34U, C46G, G47C
B23: target 1 insA 3' of 21,insG 3' of 14 (mixed)
RNA 1: B1 RNA 1
RNA 2: B4 RNA 2 with U31C, C32A, A40G
B24: target 1 insA 3' of 22,insU 3' of 20 (mixed)
RNA 1: B1 RNA 1
RNA 2: B4 RNA 2 with U31A, A35U, G36A, A37G, G38A, A39G
B25: target 1 C2U,G13U (mixed)
RNA 1: B1 RNA 1
RNA 2: B3 RNA 2 with G39U, C42U, U45C, C50U
B26: target 1 C7U,U10A (mixed)
RNA 1: B1 RNA 1
RNA 2: B3 RNA 2 with C42A
B27: target 1 C2U,U19C (mixed)
RNA 1: B1 RNA 1
RNA 2: B3 RNA 2 with U33C, C42U, U45C, C50U
B28: target 1 insU 3' of 21,insU 3' of 1 (mixed)
RNA 1: B1 RNA 1
RNA 2: GGGAAUGGAUCCACAUCUACGAAUUCGUACCUAUAGAGAGGUUAUCCGCUCAUCCGAGAUCGGAAGAGCACACGU
B29: target 1 insG 3' of 20,insG 3' of 7 (mixed)
RNA 1: B1 RNA 1
RNA 2: B8 RNA 2 with U33G, C34U
B30: target 1 insA 3' of 13,insC 3' of 9 (mixed)
RNA 1: B1 RNA 1
RNA 2: B2 RNA 2 with G40A, U41G, A43U, U44A, C46U, G47C, U48C
B31: target 1 insU 3' of 14,insG 3' of 6 (mixed)
RNA 1: B1 RNA 1
RNA 2: B1 RNA 2 with G39U, U41G, C42U, C49G, U50C, C51U, U52C
B32: target 1 insG 3' of 14,insG 3' of 4 (mixed)
RNA 1: B1 RNA 1
RNA 2: B1 RNA 2 with U41G, C42U, U50G, C51U, U52C
B33: target 1 insG 3' of 11,insA 3' of 7 (mixed)
RNA 1: B1 RNA 1
RNA 2: B2 RNA 2 with U42G, A43U, U44A, C45U, G47A, U48C
B34: target 1 C4U,U8A (mixed)
RNA 1: B1 RNA 1
RNA 2: B3 RNA 2 with C42U, U44A, U45C, C48U

Biological target: T1, EsCas13d, nuclease-dead (Eubacterium siraeum, UniProt B0MS50, R295A;H300A;R849A;H854A)
T1 sequence: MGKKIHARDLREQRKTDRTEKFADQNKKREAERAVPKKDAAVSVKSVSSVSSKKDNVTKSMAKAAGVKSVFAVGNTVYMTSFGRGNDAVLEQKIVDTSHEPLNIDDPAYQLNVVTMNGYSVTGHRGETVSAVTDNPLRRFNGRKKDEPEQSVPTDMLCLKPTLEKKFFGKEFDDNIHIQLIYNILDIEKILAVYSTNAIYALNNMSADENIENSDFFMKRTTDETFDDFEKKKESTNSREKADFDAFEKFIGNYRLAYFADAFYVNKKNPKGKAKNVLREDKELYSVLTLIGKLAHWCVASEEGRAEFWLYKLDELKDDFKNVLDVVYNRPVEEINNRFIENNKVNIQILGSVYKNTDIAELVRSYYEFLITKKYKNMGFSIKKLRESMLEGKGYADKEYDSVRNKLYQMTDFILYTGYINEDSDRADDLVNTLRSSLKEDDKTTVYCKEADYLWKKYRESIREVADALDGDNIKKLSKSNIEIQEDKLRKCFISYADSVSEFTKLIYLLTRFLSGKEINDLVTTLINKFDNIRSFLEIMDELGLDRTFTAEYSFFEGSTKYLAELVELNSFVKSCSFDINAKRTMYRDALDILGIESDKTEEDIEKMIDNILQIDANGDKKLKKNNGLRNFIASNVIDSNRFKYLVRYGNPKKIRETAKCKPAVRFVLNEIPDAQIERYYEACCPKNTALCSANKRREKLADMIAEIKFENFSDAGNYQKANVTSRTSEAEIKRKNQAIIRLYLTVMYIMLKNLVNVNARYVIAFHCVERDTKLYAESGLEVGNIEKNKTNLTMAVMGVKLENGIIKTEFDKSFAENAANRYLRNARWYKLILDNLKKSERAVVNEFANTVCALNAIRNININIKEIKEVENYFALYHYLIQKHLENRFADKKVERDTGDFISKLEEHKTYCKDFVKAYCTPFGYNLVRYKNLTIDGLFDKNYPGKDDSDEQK
Experiment: crRNA (strand 1, pre-loaded); Mg2+; 40 mM Tris-HCl pH 7.5, 150 mM NaCl, 6 mM MgCl2, 1 mM DTT, 0.1% Tween-20, 0.2 mg/ml BSA; 25 C; 10 min per concentration, then washed
Settings: tags: His6-TwinStrep-SUMO cleaved; N-terminal SNAP kept (SNAP-Surface 488); label: 3' end held by stalled T7 RNA polymerase

| Binder | Kd |
| --- | --- |
| B1 | 73 ± 21 nM |
| B2 | 9.9 ± 0.7 nM |
| B3 | 20.9 ± 1.5 nM |
| B4 | 13.7 ± 3.1 nM |
| B5 | 38.4 ± 2.1 nM |
| B6 | 35.2 ± 2.1 nM |
| B7 | 49 ± 19 nM |
| B8 | 24.1 ± 1.3 nM |
| B9 | 88 ± 15 nM |
| B10 | 8.47 ± 0.27 nM |
| B11 | 26.4 ± 1.7 nM |
| B12 | 75 ± 29 nM |
| B13 | 45 ± 8 nM |
| B14 | ~70 nM |
| B15 | 50 ± 6 nM |
| B16 | 14.2 ± 1.5 nM |
| B17 | 10.4 ± 1.3 nM |

| Binder | Kd |
| --- | --- |
| B18 | 42 ± 5 nM |
| B19 | 79 ± 16 nM |
| B20 | 16.8 ± 1.4 nM |
| B21 | 42 ± 6 nM |
| B22 | 29.8 ± 2.8 nM |
| B23 | 23.8 ± 2.3 nM |
| B24 | 16.7 ± 1 nM |
| B25 | 68 ± 20 nM |
| B26 | 7.8 ± 0.4 nM |
| B27 | 21.2 ± 1.5 nM |
| B28 | 24.2 ± 1.8 nM |
| B29 | 29 ± 5 nM |
| B30 | 8 ± 0.4 nM |
| B31 | 40 ± 6 nM |
| B32 | 7.5 ± 0.8 nM |
| B33 | 21.7 ± 1.8 nM |
| B34 | 19 ± 1.1 nM |
